The text below walks through data of patent US20230057263A1.

Test [1] addresses human CD3 epsilon (CD3ε) (human) (UniProt P07766). The experiment in a line: flow cytometry on human T cells. (A flow cytometer gives signals particle by particle.)
Test [2] deals with cynomolgus CD3-epsilon (cynomolgus) (UniProt Q95LI5). Put plainly: Luminex bead assay, 1 ug/ml antibody; recombinant cyno CD3 (sinobiologicals) on beads [Cont.].
The target in test [3] is BSA alone (bovine) (UniProt P02769). Put plainly: Luminex bead assay, 1 ug/ml antibody [Cont.].
BSA alone (bovine), sequence (P02769 25-607 limits assumed): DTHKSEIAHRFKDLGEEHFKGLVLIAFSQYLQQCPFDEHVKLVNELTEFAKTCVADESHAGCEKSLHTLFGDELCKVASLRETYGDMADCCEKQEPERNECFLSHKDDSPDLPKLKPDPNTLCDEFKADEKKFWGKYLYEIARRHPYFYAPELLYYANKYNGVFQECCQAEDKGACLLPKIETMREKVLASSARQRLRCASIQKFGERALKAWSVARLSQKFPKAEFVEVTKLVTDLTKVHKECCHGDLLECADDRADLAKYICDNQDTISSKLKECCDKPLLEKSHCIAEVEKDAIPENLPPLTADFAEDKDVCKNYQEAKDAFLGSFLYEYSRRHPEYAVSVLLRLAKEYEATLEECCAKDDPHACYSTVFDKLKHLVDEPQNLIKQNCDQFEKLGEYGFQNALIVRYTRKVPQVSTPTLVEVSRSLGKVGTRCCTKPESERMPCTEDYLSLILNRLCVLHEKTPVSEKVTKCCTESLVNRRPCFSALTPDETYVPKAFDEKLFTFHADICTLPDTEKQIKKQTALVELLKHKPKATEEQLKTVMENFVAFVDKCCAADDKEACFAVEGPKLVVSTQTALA
Test [4] has as its target huCD3d/eCHO-E DT1331 (human) (UniProt P04234). The experiment in a line: Luminex bead assay, 1 ug/ml antibody [Cont.].
Test [5] concerns the target T1, (H2N-…-OH) vCD3e #p3-BSA.
T1 sequence (peptide, conjugated to BSA): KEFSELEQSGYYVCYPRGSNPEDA
The experiment in a line: Luminex bead assay, 1 ug/ml antibody [Cont.].

The target of test [6] is T2, (H2N-…-OH) vCD3e #p2-BSA.
T2 sequence (peptide, conjugated to BSA): CPQYPGSEILWQHNDK
Put plainly: Luminex bead assay, 1 ug/ml antibody [Cont.].

Test [7] addresses biotinylated 15-mer peptide corresponding to the CD3ε N-terminus (human) (UniProt P07766). Put plainly: Luminex bead assay, 1 ug/ml antibody [Cont.].
The target of test [8] is vCD3e #p1 peptide. The experiment in a line: Luminex bead assay, 1 ug/ml antibody [Cont.].
Test [9] deals with cynomolgus CD3-epsilon (cynomolgus) (UniProt Q95LI5). The experiment in a line: flow cytometry on cynomolgus T cells.

cynomolgus CD3-epsilon (cynomolgus), sequence (Q95LI5 22-198): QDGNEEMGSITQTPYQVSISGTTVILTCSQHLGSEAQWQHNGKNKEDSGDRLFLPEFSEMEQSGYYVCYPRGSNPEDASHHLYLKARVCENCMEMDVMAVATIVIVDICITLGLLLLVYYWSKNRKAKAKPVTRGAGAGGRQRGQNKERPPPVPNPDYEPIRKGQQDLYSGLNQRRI
huCD3d/eCHO-E DT1331 (human), sequence (P04234 22-105): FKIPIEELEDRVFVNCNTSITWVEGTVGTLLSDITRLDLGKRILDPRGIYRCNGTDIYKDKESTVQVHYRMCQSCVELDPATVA

B1: SP34-2 (antibody, from a related filing, V domains shown)
VH: EVQLVESGGGLVQPKGSLKLSCAASGFTFNTYAMNWVRQAPGKGLEWVARIRSKYNNYATYYADSVKDRFTISRDDSQSILYLQMNNLKTEDTAMYYCVRHGNFGNSYVSWFAYWGQGTLVTVSA
VL: QAVVTQESALTTSPGETVTLTCRSSTGAVTTSNYANWVQEKPDHLFTGLIGGTNKRAPGVPARFSGSLIGDKAALTITGAQTEDEAIYFCALWYSNLWVFGGGTKLTVL
Take B1: the EC50 (read off the curve) – broadly, the concentration at which the effect is half-maximal – worked out at 0.2 nM in [1] and 0.3 nM in [9]. The Luminex signal is 17200 in test [2]; 398 in test [3]; 22100 in test [4]; 439 in [5]; 184 in [6]; 6.5 in [7]. Also, the Luminex signal in [8] came out at 17900.

B2: 6d59 (antibody, V domains shown)
VH: QVHLVESGGGVVQPGRSLRLSCAASGFKFRSYGMHWVRQAPGKGLEWVAIIWYDGSKRYYADSVKGRFTISRDNSKNTLYLQMSSLRAEDTAVYYCARDLITGTTDYWGQGTLVTVSS
VL: DVVMTQSPLSLPVTLGQPASISCRSSRSLVYSDGNTHLIWFQQRPGQSPRRLIYRVSNRVSGVPDRFSGSGSGTDFTLKISRVEAEDVGVYYCLQGAHWPYTFGQGTKLEIKR
B2: in test [6], the Luminex signal came to 238.
